Columns and labels:
Type in all cases: physicochemical
[1] = 65 mg/mL liquid formulation: appearance and SEC; settings: 65 mg/mL in 10 mM sodium phosphate, 140 mM sodium chloride, pH 6, about 0.06% polysorbate 80
[2] = Lyophilized formulation reconstituted to 100 mg/mL: reconstitution, appearance, SEC; settings: immediately after lyophilization and after 2 wks at 40 deg
Description: The solution was filled at 5 mL per vial into 10 mL borosilicate glass vials and fitted with gray butyl rubber lyophilization stoppers. Lyophilization was done using a Virtis Gensis model lyophilizer. The product was frozen at a shelf temperature of −60° C. for 10 hours and then the shelf temperature was raised to −40°. Primary drying was performed at a shelf temperature of −10° C. and a chamber pressure of 100 mTorr for 20 hours. […] The vials were stoppered under vacuum.
The samples were analyzed immediately after lyophilization and after 2 wks of storage in the lyophilized form at 40 deg.

[3] = Agitation-induced precipitation: vials shaken at 150 rotations per minute
[4] = Protein precipitation facilitated by trace levels of silicone (lubricated polypropylene syringe); settings: adjusted to 0.02% (w/v) polysorbate 80
From the text: The silicone oil was introduced into the product upon use of standard lubricated polypropylene syringes equipped with siliconized rubber stoppers. […] The aggregation, deamidation and subsequent precipitation caused by denaturation at the air-liquid interface has become more discernable problematic with the drug being shipped to more clinical sites. Both causes of protein precipitation have been resolved by the addition of polysorbate 80 at a concentration of 0.02% (w/v).
An evaluation of the ability of 0.02% (w/v) polysorbate 80 to inhibit the protein precipitation facilitated by trace levels of silicone was conducted. […] The material was allowed to stand for several hours at room temperature.

[5] = Antibody aggregation with partially degraded polysorbate 80 (shaking and siliconized syringes); settings: control samples without polysorbate 80, same conditions
Description: This material was diluted one-to-one with a 10 mg/mL solution of AN100226 in Formulation #2 resulting in a solution containing 0.01% (w/v) polysorbate 80 and 50% of the maximum level of degraded polysorbate 80.

Substance: natalizumab
- appearance of solution [1]: slightly opalescent but without particulates
- appearance of reconstituted solutions ([2]; 100 mg/mL reconstituted): clear and colorless with an absence of particulate material
- reconstitution times ([2]; lyophilized from 5 mM histidine, 20 mg/mL sucrose, 0.02% polysorbate 80, pH 6, 1 mL WFI to 100 mg/mL): immediate
- appearance of vials after shaking ([3]; 5 mg/mL, Lot No. AN100226-0003 with 0.02% (w/v) polysorbate 80 added, 150 rotations per minute, room temperature, within 3 hours): remained clear and free of particles
- particle formation on shaking ([3]; vials completely filled, absence of polysorbate 80, shaken for extended periods of time): without additional particle formation being induced
- particles after 0.2 μm filtration into 5-mL vial ([4]; after syringe exposure, after several days): substantially free of particles
- precipitation by visual inspection ([4]; lubricated 60 mL polypropylene syringe, several hours at room temperature): no precipitation
- precipitation of the antibody [5]: significant precipitation

Source: patent US8815236B2, “Method for treating multiple sclerosis and crohn's disease” (Biogen Idec MA, Inc., priority 2003, dated 2014)
